Common to all, as to conditions: both partners purified
For test [1], the target named is T1, PRIM2 (human primase accessory subunit) (human, UniProt P49643 1-509).
T1 construct: PRIM2, human; modelled residues 1-5 (N terminus) and 17-252 (NTD); stood in the assay as a subunit of m18; also called PRIM2NTD; PRIM2_(Nterm)
T1 sequence: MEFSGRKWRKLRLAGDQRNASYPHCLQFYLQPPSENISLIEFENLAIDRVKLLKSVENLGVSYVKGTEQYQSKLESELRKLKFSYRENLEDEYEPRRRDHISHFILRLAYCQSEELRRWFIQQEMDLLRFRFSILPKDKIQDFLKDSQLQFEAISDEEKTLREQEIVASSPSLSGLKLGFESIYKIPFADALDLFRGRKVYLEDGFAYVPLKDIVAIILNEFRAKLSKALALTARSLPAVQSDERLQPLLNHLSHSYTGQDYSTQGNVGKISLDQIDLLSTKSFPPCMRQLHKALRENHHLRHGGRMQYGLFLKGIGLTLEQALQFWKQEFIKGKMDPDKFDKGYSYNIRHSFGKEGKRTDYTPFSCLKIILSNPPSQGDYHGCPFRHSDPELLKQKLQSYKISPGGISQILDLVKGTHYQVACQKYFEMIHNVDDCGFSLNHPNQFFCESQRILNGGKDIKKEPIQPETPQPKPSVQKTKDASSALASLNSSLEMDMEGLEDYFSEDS
Description: cryo-EM structure; human replisome: 150 nM CMG on fork DNA (60 nt or 15 nt 5′ flap) with 1.5-fold molar excess of AND-1, TIMELESS-TIPIN, CLASPIN and Pol α-primase; 25 mM HEPES-NaOH pH 7.6, 150 mM NaOAc, 0.5 mM TCEP, 500 μM AMP-PNP, 10 mM Mg(OAc)2, on ice; 10-30% glycerol gradient with glutaraldehyde and BS3 cross-linkers.

The next test concerns the target T2, Mrc1 (budding yeast) (S. cerevisiae, UniProt P25588 1-1096).
T2 construct: Mrc1, S. cerevisiae; several small sections modelled (S339-K323 as printed, D468-Q483, N842-E858); source: S. cerevisiae strain yJY32, expressed and purified as described previously
T2 sequence: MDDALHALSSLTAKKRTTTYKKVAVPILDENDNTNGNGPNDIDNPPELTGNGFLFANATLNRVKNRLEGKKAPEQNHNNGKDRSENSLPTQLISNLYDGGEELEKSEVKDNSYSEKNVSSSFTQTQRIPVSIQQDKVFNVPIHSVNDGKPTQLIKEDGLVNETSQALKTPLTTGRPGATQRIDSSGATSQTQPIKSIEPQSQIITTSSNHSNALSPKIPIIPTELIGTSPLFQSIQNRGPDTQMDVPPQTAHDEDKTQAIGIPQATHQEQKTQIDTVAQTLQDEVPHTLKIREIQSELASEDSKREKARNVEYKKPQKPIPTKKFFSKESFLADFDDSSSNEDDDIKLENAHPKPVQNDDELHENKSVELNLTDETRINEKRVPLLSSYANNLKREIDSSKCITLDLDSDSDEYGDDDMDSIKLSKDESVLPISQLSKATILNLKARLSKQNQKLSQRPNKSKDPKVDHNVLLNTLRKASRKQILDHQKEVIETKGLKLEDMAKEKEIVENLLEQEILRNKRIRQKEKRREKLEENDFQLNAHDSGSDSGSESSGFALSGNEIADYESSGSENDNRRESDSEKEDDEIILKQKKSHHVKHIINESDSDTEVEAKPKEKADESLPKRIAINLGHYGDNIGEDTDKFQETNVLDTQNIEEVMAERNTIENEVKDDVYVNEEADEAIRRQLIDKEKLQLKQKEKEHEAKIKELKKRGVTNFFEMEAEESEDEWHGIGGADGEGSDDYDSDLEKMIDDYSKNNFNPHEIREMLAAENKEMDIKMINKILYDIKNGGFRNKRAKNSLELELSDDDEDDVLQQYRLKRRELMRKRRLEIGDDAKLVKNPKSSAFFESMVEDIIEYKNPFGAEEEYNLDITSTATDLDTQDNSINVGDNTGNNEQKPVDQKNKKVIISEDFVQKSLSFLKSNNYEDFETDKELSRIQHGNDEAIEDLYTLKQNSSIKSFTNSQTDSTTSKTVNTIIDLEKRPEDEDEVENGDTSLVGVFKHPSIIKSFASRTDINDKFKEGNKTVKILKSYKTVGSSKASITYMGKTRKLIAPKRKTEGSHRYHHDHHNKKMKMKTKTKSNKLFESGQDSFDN
Description: cryo-EM structure; budding yeast replisome: 150 nM CMG on fork DNA (39 nt 3′ flap, 60 nt 5′ flap) with 1.5-fold molar excess of Tof1-Csm3, Mrc1 and Pol α-primase; 25 mM HEPES-NaOH pH 7.6, 150 mM NaOAc, 0.5 mM TCEP, 500 μM AMP-PNP, 10 mM Mg(OAc)2, on ice; 10-30% glycerol gradient with glutaraldehyde and BS3 cross-linkers.

Test [2] concerns the target T3, budding yeast CMG (Cdc45-Mcm2-7-GINS) replicative helicase (S. cerevisiae, UniProt Q08032 1-650; P29469 1-868; P24279 1-971; P30665 1-933; P29496 1-775; P53091 …).
T3 construct: Cdc45, S. cerevisiae; Mcm2, S. cerevisiae; Mcm3, S. cerevisiae; Mcm4, S. cerevisiae (named only within Mcm2-7); Mcm5, S. cerevisiae; Mcm6, S. cerevisiae (named only within Mcm2-7); Mcm7, S. cerevisiae (named only within Mcm2-7); Psf1, subunit of GINS, S. cerevisiae; Psf2, subunit of GINS, S. cerevisiae; Sld5, subunit of GINS, S. cerevisiae; source: S. cerevisiae strain yJY197, expressed and …
The test is described as above.

B1: PSF2 (human GINS subunit) (natural protein)
chain: MDAAEVEFLAEKELVTIIPNFSLDKIYLIGGDLGPFNPGLPVEVPLWLAINLKQRQKCRLLPPEWMDVEKLEKMRDHERKEETFTPMPSPYYMELTKLLLNHASDNIPKADEIRTLVKDMWDTRIAKLRVSADSFVRQQEAHAKLDNLTLMEINTSGTFLTQALNHMYKLRTNLQPLESTQSQDF
notes: PSF2, subunit of GINS, human; stood in the assay as a subunit of m19
On to B1, for which, in test [1], the binding result is “binds”.

B2: Mcm2 (budding yeast) (natural protein, S. cerevisiae)
chain: MSDNRRRRREEDDSDSENELPPSSPQQHFRGGMNPVSSPIGSPDMINPEGDDNEVDDVPDIDEVEEQMNEVDLMDDNMYEDYAADHNRDRYDPDQVDDREQQELSLSERRRIDAQLNERDRLLRNVAYIDDEDEEQEGAAQLDEMGLPVQRRRRRRQYEDLENSDDDLLSDMDIDPLREELTLESLSNVKANSYSEWITQPNVSRTIARELKSFLLEYTDETGRSVYGARIRTLGEMNSESLEVNYRHLAESKAILALFLAKCPEEMLKIFDLVAMEATELHYPDYARIHSEIHVRISDFPTIYSLRELRESNLSSLVRVTGVVTRRTGVFPQLKYVKFNCLKCGSILGPFFQDSNEEIRISFCTNCKSKGPFRVNGEKTVYRNYQRVTLQEAPGTVPPGRLPRHREVILLADLVDVSKPGEEVEVTGIYKNNYDGNLNAKNGFPVFATIIEANSIKRREGNTANEGEEGLDVFSWTEEEEREFRKISRDRGIIDKIISSMAPSIYGHRDIKTAVACSLFGGVPKNVNGKHSIRGDINVLLLGDPGTAKSQILKYVEKTAHRAVFATGQGASAVGLTASVRKDPITKEWTLEGGALVLADKGVCLIDEFDKMNDQDRTSIHEAMEQQSISISKAGIVTTLQARCSIIAAANPNGGRYNSTLPLAQNVSLTEPILSRFDILCVVRDLVDEEADERLATFVVDSHVRSHPENDEDREGEELKNNGESAIEQGEDEINEQLNARQRRLQRQRKKEEEISPIPQELLMKYIHYARTKIYPKLHQMDMDKVSRVYADLRRESISTGSFPITVRHLESILRIAESFAKMRLSEFVSSYDLDRAIKVVVDSFVDAQKVSVRRQLRRSFAIYTLGH
notes: Mcm2, S. cerevisiae; stood in the assay as a subunit of m2; source: subunit of CMG from S. cerevisiae strain yJY197, purified as described previously
Take B2: the binding result with Mrc1 (budding yeast) was “binds”.

B3: Tof1-Csm3 (budding yeast) (complex, S. cerevisiae)
chain 1: MSADLQQGTTNAADFSLTVLRARIALLATAIGGPDYTSQIDPPPYKLGDDCLACLKDLKRWFKLVDDQQKRWDVAMAVAEYRILTDDLLPILIDWENKCSLAAKLAKNNPDHEEFRNKAYYDKIALNCLQLLVLMTWPLIVTEQSSSNQITLYGELKKHQLVYKKTILSMESGKVLRAAIRLALDVIKIDRLSRTPRDNMVLKLVLNFFRNVIAIEPGEFTINTKKSMPKKGITSIDTLPPNVSMDDISLNTVISSFHKNKVFGFLLTLTSSLSKEFDQDFINIPLLEIMFYFTKDVNQELLFPRQFETGTHSKVVNKNESSSANNIVTSAGFELSKLLQKEHQMRKNVIKHTSARHSRFGGLLSIQTPDKTRLTVSGSQALVDEKIALQKLDDSKKWNKRIIKKHQSVAAEGLPNSLLNSQTGKAIFFTESNGKHFKEFINNFIDSGFNILLHSVTNYFTTEQDRMVTLEQVEYLLFFAWFVKYQLLRSKIDNSADIKQVSEALKEVTFILVSSLLRSAYDLKNWTVTHAGMIAFNELLNLVSRTKAAQEEDSTDIEFIVSRLFSDERIQLLSNLPKIGSKYSLQFMKSCIELTHSVLKVLEQYSDDKTLVIEGKSRRQKKFNISEGDITKLIEEENVDRDEALDILTSSLRSIEVNFQKVQANYMTEPVIETYINFLERFRELEDDSIKKVFSFFHRVFVQAKEQALLFRFDLIILLREMLSPDGLDRMSRSRKYVSQFSDYFLARLKKRLKKSPAWFVGLLFPPLHNSEVGFYQRYGEYNVLNNESMYAAPASQFKPIPDEEALPPSILLDMKYGVLVSTLLDDGKTELLDQLLKHITHTLDIFKSWLTVNVNAGKETVNPPNEYFTLTGVLNNDPIFKDKDYRALLLLIGYSIPRKINEPCFLPGTVEVSDLTVSCELVKKYLSTPFETPNGLPSSSYLLRVRSEKDSFSHNEQDGWEGDDDYDYNDPYIVPDDQILSKSDAAYFKDLDNNASDKLKGTKFSKGIARSKKKDKRKRRKGEAKTNLPMFGDQDDERPQTVRERHGVFSKEFISDSEDDEDLMNPIFFENETYMRWLLDKNNGQLTEDRYIQFAKFAAERMNNGGVVTGDYTSLFGGSIPSIESIRATESSSFAPDKSLISLASHVASEMSIFDVNNNNNNQLSDDDVNSESRNSLGSSQPSNSQNMFQSEVYSRKESTKRSLEASAADESDEDEEAIRLFGKKSRVVLSQGDSDD
chain 2: MDQDFDSLLLGFNDSDSVQKDPTVPNGLDGSVVDPTIADPTAITARKRRPQVKLTAEKLLSDKGLPYVLKNAHKRIRISSKKNSYDNLSNIIQFYQLWAHELFPKAKFKDFMKICQTVGKTDPVLREYRVSLFRDEMGMSFDVGTRETGQDLERQSPMVEEHVTSAEERPIVADSFAQDKRNVNNVDYDNDEDDDIYHLSYRNRRGRVLDERGNNETVLNNVVPPKEDLDALLKTFRVQGPVGLEENEKKLLLGWLDAHRKMEKGSMTEEDVQLIQSLEEWEMNDIEGQHTHYDLLPGGDEFGVDQDELDAMKEMGF
notes: Tof1, S. cerevisiae; Csm3, S. cerevisiae; source: S. cerevisiae strain yAE48, expressed and purified as described previously
Regarding B3, the binding result in test [2] is listed as “binds”.

B4: Cdc45 (budding yeast) (natural protein, S. cerevisiae, UniProt Q08032 1-650, looked up)
chain: MYYGISQFSEAYNKILRNSSSHSSCQLVIFVSCLNIDALCATKMLSLLFKKQLVQSQIVPIFGYSELRRHYSQLDDNINSLLLVGFGGVIDLEAFLEIDPQEYVIDTDEKSGEQSFRRDIYVLDAHRPWNLDNIFGSQIIQCFDDGTVDDTLGEQKEAYYKLLELDEESGDDELSGDENDNNGGDDEATDADEVTDEDEEDEDETISNKRGNSSIGPNDLSKRKQRKKQIHEYEGVLEEYYSQGTTVVNSISAQIYSLLSAIGETNLSNLWLNILGTTSLDIAYAQVYNRLYPLLQDEVKRLTPSSRNSVKTPDTLTLNIQPDYYLFLLRHSSLYDSFYYSNYVNAKLSLWNENGKKRLHKMFARMGIPLSTAQETWLYMDHSIKRELGIIFDKNLDRYGLQDIIRDGFVRTLGYRGSISASEFVEALTALLEVGNSTDKDSVKINNDNNDDTDGEEEEDNSAQKLTNLRKRWVSNFWLSWDALDDRKVELLNRGIQLAQDLQRAIFNTGVAILEKKLIKHLRIYRLCVLQDGPDLDLYRNPLTLLRLGNWLIECCAESEDKQLLPMVLASIDENTDTYLVAGLTPRYPRGLDTIHTKKPILNNFSMAFQQITAETDAKVRIDNFESSIIEIRREDLSPFLEKLTLSGLL
notes: Cdc45, S. cerevisiae; stood in the assay as a subunit of m2; source: subunit of CMG from S. cerevisiae strain yJY197, purified as described previously
As for B4, the binding result in the test with Mrc1 (budding yeast) was “binds”.

Source of the values: PMC10501992, “How Pol α-primase is targeted to replisomes to prime eukaryotic DNA replication” (Molecular Cell, 2023).
